Data reported in the supplement of paper PMC10065799, “High-throughput profiling of sequence recognition by tyrosine kinases and SH2 domains using bacterial peptide display” (eLife, 2023).

What was measured:
Grb2 SH2 = Grb2 SH2 (UniProt P62993); test: SH2 binding enrichment of the phosphorylated peptide, bacterial display (enrichment ratio); higher = better substrate or ligand; peptides without Tyr show the background
SHP2-C SH2 = test: as above
c-Src SH2 = test: as above
MERTK = MERTK (UniProt Q12866); test: phosphorylation enrichment, bacterial display (enrichment ratio); higher = better substrate or ligand; peptides without Tyr show the background
EPHB1 = EPHB1 (UniProt P54762); test: as above
c-Src = test: as above
EPHB2 = EPHB2 (UniProt P29323); test: as above
c-Abl (mouse) = test: as above
Hck = Hck (UniProt P08631); test: as above
Fer (mouse) = test: as above
Fyn = Fyn (UniProt P06241); test: as above
FGFR3 = FGFR3 (UniProt P22607); test: as above
Jak2 = Jak2 (UniProt O60674); test: as above
FGFR1 = FGFR1 (UniProt P11362); test: as above
Fes = Fes (UniProt P07332); test: as above
AncSZ = test: as above
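For SH2 binding enrichment of the phosphorylated peptide, bacterial display in this document: peptide library displayed on the E. coli surface as eCPX fusions, selected cells deep-sequenced, score is each peptide's frequency after selection divided by its frequency in the input.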
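For phosphorylation enrichment, bacterial display in this document: 11-residue human phosphosite peptides and single-mutation variants displayed on the E. coli surface, counted by deep sequencing, each peptide's frequency after selection divided by its frequency in the unselected input library; frequency after pTyr selection over input frequency; kinase dosed for 20-30% of maximal phosphorylation in three min.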

Sequence of Fyn (P06241 whole entry, looked up): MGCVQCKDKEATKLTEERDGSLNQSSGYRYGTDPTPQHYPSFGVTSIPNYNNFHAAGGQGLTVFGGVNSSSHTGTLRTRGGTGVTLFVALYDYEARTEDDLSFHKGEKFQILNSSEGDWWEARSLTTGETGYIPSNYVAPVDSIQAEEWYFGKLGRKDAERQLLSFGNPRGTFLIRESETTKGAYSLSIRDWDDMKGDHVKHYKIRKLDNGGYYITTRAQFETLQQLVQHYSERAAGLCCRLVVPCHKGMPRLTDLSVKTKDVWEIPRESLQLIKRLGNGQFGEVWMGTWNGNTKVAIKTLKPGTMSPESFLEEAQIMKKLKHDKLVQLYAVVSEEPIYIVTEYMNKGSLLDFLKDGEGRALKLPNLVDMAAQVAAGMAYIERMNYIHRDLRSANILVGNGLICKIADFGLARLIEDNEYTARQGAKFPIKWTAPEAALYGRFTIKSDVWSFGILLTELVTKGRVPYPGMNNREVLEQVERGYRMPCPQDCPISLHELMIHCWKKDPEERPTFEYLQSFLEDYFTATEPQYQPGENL
Sequence of MERTK (Q12866 whole entry, looked up): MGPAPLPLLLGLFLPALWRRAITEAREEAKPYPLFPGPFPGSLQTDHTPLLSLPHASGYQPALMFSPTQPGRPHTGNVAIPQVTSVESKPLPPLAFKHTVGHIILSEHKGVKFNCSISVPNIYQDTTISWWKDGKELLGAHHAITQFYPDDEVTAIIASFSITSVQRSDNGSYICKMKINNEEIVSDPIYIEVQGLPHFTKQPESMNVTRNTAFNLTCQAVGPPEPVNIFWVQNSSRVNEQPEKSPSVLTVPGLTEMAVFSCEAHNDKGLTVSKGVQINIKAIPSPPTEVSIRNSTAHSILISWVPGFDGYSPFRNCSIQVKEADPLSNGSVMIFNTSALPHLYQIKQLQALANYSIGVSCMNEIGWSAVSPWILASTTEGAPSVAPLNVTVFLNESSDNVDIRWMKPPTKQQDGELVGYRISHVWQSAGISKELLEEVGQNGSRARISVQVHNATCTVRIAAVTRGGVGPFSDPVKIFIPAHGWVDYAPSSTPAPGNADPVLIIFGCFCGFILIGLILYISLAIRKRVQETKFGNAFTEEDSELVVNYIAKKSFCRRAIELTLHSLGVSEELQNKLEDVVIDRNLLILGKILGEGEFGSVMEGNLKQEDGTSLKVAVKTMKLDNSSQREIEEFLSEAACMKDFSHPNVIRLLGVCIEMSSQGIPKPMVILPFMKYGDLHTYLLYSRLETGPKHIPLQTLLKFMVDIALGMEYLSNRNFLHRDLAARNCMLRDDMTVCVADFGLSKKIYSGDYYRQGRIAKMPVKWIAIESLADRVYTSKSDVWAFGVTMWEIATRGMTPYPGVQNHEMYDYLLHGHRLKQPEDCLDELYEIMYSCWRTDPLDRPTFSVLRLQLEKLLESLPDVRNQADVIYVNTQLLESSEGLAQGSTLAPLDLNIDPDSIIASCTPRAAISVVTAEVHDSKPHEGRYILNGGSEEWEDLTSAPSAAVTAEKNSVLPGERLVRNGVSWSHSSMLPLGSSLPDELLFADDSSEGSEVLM
Sequence of Hck (P08631 whole entry, looked up): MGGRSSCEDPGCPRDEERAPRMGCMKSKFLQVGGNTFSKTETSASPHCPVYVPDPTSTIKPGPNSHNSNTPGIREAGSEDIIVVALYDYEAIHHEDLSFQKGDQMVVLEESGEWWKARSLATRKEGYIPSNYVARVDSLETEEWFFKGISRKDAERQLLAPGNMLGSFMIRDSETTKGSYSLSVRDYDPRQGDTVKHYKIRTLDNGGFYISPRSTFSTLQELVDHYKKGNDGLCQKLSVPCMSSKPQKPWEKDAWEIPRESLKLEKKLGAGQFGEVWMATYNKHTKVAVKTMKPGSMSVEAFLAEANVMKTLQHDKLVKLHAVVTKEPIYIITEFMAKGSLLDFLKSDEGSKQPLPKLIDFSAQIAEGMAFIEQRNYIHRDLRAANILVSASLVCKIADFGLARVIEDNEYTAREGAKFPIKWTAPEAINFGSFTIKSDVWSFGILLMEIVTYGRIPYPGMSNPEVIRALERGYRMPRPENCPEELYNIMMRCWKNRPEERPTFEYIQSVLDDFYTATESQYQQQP
Sequence of Jak2 (O60674 whole entry, looked up): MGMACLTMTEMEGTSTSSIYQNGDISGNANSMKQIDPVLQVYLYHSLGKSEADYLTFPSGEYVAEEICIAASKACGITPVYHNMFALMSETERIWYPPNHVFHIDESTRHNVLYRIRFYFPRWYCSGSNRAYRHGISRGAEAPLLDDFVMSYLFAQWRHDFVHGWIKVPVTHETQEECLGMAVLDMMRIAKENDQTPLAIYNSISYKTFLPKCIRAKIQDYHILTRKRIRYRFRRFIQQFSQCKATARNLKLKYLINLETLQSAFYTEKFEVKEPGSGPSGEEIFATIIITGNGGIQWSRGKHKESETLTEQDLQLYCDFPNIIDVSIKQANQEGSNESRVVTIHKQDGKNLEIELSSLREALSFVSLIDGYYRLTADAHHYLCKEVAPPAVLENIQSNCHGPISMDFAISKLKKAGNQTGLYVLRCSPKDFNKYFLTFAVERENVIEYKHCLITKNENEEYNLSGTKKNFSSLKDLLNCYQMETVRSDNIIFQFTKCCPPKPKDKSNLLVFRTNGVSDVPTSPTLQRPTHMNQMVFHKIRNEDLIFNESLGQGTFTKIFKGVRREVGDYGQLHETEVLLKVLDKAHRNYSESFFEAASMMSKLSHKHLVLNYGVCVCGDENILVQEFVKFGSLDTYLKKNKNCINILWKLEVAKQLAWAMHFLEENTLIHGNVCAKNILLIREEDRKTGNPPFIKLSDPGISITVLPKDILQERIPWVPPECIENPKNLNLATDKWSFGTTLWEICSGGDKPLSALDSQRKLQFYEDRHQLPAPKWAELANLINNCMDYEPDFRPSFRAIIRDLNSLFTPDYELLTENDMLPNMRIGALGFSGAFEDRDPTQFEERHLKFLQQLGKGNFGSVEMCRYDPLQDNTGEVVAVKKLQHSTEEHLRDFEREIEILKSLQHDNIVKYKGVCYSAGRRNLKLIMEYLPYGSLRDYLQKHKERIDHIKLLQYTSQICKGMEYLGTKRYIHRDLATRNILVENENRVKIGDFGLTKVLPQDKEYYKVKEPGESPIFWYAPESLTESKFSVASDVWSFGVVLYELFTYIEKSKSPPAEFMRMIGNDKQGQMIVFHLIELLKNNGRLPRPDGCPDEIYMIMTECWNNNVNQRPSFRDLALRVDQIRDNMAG
Sequence of EPHB2 (P29323 whole entry, looked up): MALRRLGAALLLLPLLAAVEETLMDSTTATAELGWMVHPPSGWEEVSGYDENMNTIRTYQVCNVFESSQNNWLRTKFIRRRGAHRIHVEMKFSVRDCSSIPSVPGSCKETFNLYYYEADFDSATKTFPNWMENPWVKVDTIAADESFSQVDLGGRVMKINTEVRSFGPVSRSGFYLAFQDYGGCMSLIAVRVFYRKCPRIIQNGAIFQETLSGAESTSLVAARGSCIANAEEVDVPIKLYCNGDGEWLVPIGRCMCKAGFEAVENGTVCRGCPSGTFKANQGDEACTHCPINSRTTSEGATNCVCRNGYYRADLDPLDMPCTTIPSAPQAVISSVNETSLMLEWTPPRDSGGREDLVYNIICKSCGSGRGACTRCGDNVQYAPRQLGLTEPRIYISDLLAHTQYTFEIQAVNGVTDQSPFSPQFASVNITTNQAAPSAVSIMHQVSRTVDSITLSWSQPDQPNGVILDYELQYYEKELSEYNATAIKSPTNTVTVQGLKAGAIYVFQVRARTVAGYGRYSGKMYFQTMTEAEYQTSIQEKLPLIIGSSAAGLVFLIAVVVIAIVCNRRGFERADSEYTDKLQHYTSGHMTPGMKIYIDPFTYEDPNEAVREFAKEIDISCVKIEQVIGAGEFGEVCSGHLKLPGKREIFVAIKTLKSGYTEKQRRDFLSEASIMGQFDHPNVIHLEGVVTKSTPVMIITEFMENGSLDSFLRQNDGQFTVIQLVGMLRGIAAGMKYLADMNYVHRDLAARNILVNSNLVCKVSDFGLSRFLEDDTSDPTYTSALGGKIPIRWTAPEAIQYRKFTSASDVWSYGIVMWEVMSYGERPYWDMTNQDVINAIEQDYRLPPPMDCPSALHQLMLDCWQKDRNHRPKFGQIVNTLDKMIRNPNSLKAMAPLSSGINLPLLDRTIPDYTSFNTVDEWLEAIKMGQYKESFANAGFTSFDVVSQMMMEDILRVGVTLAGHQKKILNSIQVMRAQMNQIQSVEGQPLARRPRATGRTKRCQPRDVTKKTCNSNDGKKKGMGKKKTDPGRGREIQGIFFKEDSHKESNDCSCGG
Sequence of Grb2 SH2 (P62993 whole entry, looked up): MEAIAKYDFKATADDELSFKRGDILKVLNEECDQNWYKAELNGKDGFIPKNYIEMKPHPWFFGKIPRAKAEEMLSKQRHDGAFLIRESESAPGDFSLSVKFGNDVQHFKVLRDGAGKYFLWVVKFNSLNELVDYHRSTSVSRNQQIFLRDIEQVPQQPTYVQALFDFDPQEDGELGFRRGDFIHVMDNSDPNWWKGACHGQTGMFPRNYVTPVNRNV

Sequence | SH2 binding enrichment (Grb2 SH2) | SH2 binding enrichment (SHP2-C SH2) | SH2 binding enrichment (c-Src SH2) | phosphorylation enrichment (MERTK) | phosphorylation enrichment (EPHB1) | phosphorylation enrichment (c-Src) | phosphorylation enrichment (EPHB2) | phosphorylation enrichment (c-Abl (mouse)) | phosphorylation enrichment (Hck) | phosphorylation enrichment (Fer (mouse)) | phosphorylation enrichment (Fyn) | phosphorylation enrichment (FGFR3) | phosphorylation enrichment (Jak2) | phosphorylation enrichment (FGFR1) | phosphorylation enrichment (Fes) | phosphorylation enrichment (AncSZ)
SVTCMYSPALN [TP53_Y126_T125M] | 0.737 | 0.52 | 0.457 | 0.472 | 0.738 | 0.804 | 0.632 | 0.97 | 0.594 | 0.667 | 0.501 | 0.749 | 1.36 | 0.481 | 1.47 | 1.39
SVTCTYFPALN [TP53_Y126_S127F] | 0.721 | 0.747 | 0.388 | 0.608 | 0.83 | 0.452 | 0.669 | 1.13 | 0.554 | 0.637 | 0.487 | 1.01 | 1.64 | 0.632 | 1.82 | 1.68
SVTCTYSPAVN [TP53_Y126_L130V] | 0.588 | 0.661 | 0.369 | 0.508 | 0.77 | 0.662 | 0.746 | 1.18 | 0.654 | 0.646 | 0.58 | 0.945 | 1.49 | 0.697 | 1.71 | 1.58
SVVLPYEPPEV [TP53_Y220_V218L] | 0.791 | 0.861 | 0.963 | 0.47 | 0.686 | 0.592 | 0.797 | 0.945 | 0.518 | 0.746 | 0.456 | 0.704 | 0.98 | 0.538 | 1.12 | 1.47
SVVVPNEPPEV [TP53_Y220_Y220N] | 0.825 | 0.783 | 0.538 | 0.439 | 0.645 | 0.517 | 0.665 | 0.711 | 0.581 | 0.691 | 0.539 | 0.81 | 1.05 | 0.63 | 1.43 | 1.03
SYKNKYGMVAQ [APOB_Y276] | 1.01 | 0.786 | 0.613 | 0.335 | 0.333 | 0.569 | 0.333 | 0.562 | 0.442 | 0.398 | 0.367 | 0.385 | 0.483 | 0.385 | 0.674 | 0.555
SYPHEYGSQEG [RBM10_Y48_R46H] | 0.825 | 0.699 | 0.441 | 0.465 | 0.483 | 0.415 | 0.44 | 0.591 | 0.458 | 0.411 | 0.402 | 0.559 | 0.767 | 0.54 | 0.87 | 0.835
TAIFIYIRPKA [OR10C1_Y258_L255I] | 1.17 | 0.796 | 0.522 | 0.387 | 0.414 | 0.521 | 0.68 | 0.641 | 0.481 | 0.584 | 0.615 | 0.814 | 1.46 | 0.518 | 1.39 | 1.79
TEGNEYVFRVA | 0.708 | 0.69 | 0.493 | 0.421 | 0.593 | 0.528 | 0.627 | 0.647 | 0.486 | 0.44 | 0.583 | 0.822 | 0.949 | 0.647 | 1.28 | 1.08
TEQDPYNNIVH [MMUT_Y364_R369H] | 0.913 | 0.769 | 2.11 | 0.512 | 0.475 | 0.515 | 0.679 | 0.851 | 0.586 | 0.544 | 0.572 | 0.599 | 0.788 | 0.501 | 0.965 | 1.05
TEVIWYKGDEE | 0.484 | 0.624 | 0.478 | 0.51 | 0.516 | 0.601 | 0.606 | 0.691 | 0.335 | 0.393 | 0.445 | 0.704 | 1.45 | 0.445 | 1.55 | 1.72
TFGVAYRAKDK [CDK11B_Y453_V452A_YF] | 0.842 | 0.674 | 0.507 | 0.358 | 0.472 | 0.282 | 0.575 | 0.498 | 0.537 | 0.342 | 0.437 | 0.484 | 1.09 | 0.418 | 1.03 | 1.08
TGDFGYRAPGF [TNS2_Y668_YF] | 0.965 | 0.726 | 0.463 | 0.542 | 0.501 | 0.593 | 0.414 | 1.02 | 0.409 | 0.44 | 0.6 | 0.601 | 0.724 | 0.542 | 0.784 | 0.724
TGGLEYIVPLM [CLCN4_Y548] | 0.869 | 0.675 | 0.52 | 0.364 | 0.797 | 0.417 | 0.787 | 0.937 | 0.42 | 0.379 | 0.436 | 2.29 | 2.32 | 3 | 0.965 | 2.14
TGNGYYFRVFS [MYBPC3_Y1136_I1131T] | 0.87 | 0.753 | 0.492 | 0.353 | 0.707 | 0.332 | 0.657 | 0.818 | 0.436 | 0.594 | 0.334 | 0.766 | 1.41 | 0.542 | 1.3 | 1.04
